Experiment [1] concerns the target T1, CEACAM1 (Sino Biological) (human, UniProt P13688 35-428, limits assumed).
T1 construct: may be the same as CEACAM1-HIS; also called hCEACAM1; biotinylated soluble CEACAM1
T1 sequence: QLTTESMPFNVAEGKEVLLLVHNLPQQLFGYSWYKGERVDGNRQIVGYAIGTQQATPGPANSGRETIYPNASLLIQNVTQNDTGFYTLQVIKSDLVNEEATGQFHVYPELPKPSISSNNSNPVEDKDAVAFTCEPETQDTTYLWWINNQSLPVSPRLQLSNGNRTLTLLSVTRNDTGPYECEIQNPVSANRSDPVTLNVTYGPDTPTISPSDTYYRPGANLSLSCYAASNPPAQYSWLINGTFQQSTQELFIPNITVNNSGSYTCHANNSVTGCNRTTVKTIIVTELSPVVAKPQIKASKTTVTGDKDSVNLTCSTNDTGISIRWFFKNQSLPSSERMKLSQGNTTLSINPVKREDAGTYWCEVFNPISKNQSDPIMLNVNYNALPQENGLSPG
Kind of experiment: phage binding assay.

The target of experiment [2] is T2, CEACAM3 (Sino Biological) (human, UniProt P40198 35-155, limits assumed).
T2 construct: also called hCEACAM3
T2 sequence (looked up): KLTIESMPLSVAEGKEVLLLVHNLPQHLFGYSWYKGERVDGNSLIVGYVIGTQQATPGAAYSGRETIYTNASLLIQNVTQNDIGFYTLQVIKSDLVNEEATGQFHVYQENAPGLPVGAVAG
Nature of the experiment: binding ELISA on plate-coated CEACAM (0.5 µg/mL); antibody at 1.67, 0.062 and 0.0069 µg/mL; signal as % of parent IgG on CEACAM1 at 1.67 µg/mL on the same plate.

In experiment [3] the target is T3, CEACAM6 (Sino Biological) (human, UniProt P40199 35-320).
T3 construct: also called hCEACAM6
T3 sequence (looked up): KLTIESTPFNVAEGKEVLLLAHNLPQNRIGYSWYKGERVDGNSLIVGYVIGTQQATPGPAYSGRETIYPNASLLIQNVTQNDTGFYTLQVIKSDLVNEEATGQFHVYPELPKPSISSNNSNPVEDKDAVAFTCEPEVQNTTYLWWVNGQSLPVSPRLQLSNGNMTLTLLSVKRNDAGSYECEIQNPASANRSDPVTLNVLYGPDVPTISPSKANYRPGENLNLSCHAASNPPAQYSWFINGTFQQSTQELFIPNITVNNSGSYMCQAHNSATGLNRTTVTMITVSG
Described as above.

For experiment [4], the target named is T4, CEACAM5 (Sino Biological) (human, UniProt P06731 35-685).
T4 construct: also called hCEACAM5
T4 sequence (looked up): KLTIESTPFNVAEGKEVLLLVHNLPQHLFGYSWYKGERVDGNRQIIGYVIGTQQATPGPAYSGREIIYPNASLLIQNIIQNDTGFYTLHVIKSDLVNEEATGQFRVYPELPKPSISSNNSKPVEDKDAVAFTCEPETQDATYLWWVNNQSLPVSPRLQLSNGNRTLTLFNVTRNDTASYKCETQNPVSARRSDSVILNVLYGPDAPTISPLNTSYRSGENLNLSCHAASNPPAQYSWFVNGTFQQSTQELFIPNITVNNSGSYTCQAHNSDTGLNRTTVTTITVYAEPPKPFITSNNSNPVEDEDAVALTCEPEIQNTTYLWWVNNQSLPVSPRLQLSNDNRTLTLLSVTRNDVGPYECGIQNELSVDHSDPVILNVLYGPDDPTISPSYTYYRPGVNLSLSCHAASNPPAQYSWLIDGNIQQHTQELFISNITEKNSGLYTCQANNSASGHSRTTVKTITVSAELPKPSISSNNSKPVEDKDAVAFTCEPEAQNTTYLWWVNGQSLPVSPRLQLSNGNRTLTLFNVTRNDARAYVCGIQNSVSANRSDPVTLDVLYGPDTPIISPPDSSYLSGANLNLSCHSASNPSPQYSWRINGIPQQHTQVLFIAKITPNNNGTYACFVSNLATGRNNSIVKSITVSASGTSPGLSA
The description is as above.

Experiment [5] concerns the target T1, CEACAM1 (Sino Biological). Nature of the experiment: SPR single-cycle. In a few lines:
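Humanized affinity-matured IgGs from crude supernatants captured on Protein A to ~100 RU, with CEACAM1 analyte injected at 25–100 nM (three-point, two-fold) in HBS-P+ without regeneration. 200 s association per injection, 300 s single dissociation; reference-channel and blank subtracted.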

Experiment [6] concerns the target T1, CEACAM1 (Sino Biological). Nature of the experiment: SPR multi-cycle, IgG on Protein A.
The target in experiment [7] is T2, CEACAM3 (Sino Biological). Nature of the experiment: binding ELISA on plate-coated CEACAM (0.5 µg/mL); antibody at 1.67, 0.062 and 0.0069 µg/mL; signal as % of parent IgG on CEACAM1 at 1.67 µg/mL on the same plate. The source holds these as a separate data set.
The target of experiment [8] is T3, CEACAM6 (Sino Biological). The description is as above. The source holds these as a separate data set.
Experiment [9] has as its target T4, CEACAM5 (Sino Biological). The description is as above. This is another data set of the same source.
Experiment [10] has as its target T2, CEACAM3 (Sino Biological). The experiment is described as above. This is another data set of the same source.

Like-named read-outs stand apart in the source and are kept apart here.

B1: parent VH2 N56Q/Vκ4 S27(f)A scFv displayed on phage (scFv)
scFv: EVQLLESGGGLVQPGGSLRLSCAASGFSFSDYYLYWVRQAPGKGLEWVATISVGGGQTSYADSVKGRFTISRDNSKNTLYLQMNSLRAEDTAMYYCTRGLYYGPAWFAYWGQGTLVTVSSGGGGSGGGGSGGGGSDIVMTQSPDSLAVSLGERATINCKSSQSLLNSANQKNYLAWYQQKPGQPPKLLIYFASTRESGVPDRFSGSGSGTDFTLTISSLQAEDVAVYYCQQHYSTPWTFGGGTKVEIK
notes: also called parent scFv hyper phage; parent M13 helper phage; not shown: C-terminal Flag tag and gene III fusion
On to B1, for which the binding result in [1] is on record as “binds”.

B2: He3/L20 (antibody, IgG4, V domains shown)
VH: EVQLLESGGGLVQPGGSLRLSCAASGFSFSDYYLYWVRQAPGKGLEWVATISVGGGQTSYADSVKGRFTISRDNSKNTLYLQMNSLRAEDTAMYYCTRALTYGPAWLAYWGQGTLVTVSS
VL: DIVMTQSPDSLAVSLGERATINCKSSQSLLNSANQKNYLAWYQQKPGQPPKLLIYFASTRESGVPDRFSGSGSGTDFTLTISSLQAEDVAVYYCQSHFPYPLTFGGGTKVEIK
notes: IgG4 S241P, kappa; also called He3 / 20
As for B2, in experiment [2], the binding result was “no binding (tested: 1.67 µg/mL)”. In experiment [3], the binding result is “no binding (tested: 1.67 µg/mL)”. Besides, in [4], the binding result was “no binding (tested: 1.67 µg/mL)”. Further, in experiment [5], the Kd came out at 74 nM and the “fold better than Parent (KD)” value was determined as 2.15 fold. For the same molecule, in experiment [6], the affinity, expressed as Kd, was 25.5 nM; the off-rate constant (koff) came to 0.0078 s⁻¹; the kon came to 306000 M⁻¹ s⁻¹; the “relative KD to Parent” value is 3.34 ratio.

B3: Parent VH/L1 (antibody, IgG4, V domains shown)
VH: EVQLLESGGGLVQPGGSLRLSCAASGFSFSDYYLYWVRQAPGKGLEWVATISVGGGQTSYADSVKGRFTISRDNSKNTLYLQMNSLRAEDTAMYYCTRGLYYGPAWFAYWGQGTLVTVSS
VL: DIVMTQSPDSLAVSLGERATINCKSSQSLLNSANQKNYLAWYQQKPGQPPKLLIYFASTRESGVPDRFSGSGSGTDFTLTISSLQAEDVAVYYCQSHYPFYYTFGGGTKVEIK
notes: IgG4 S241P, kappa; also called VHp/L1; VH2 N56Q / 1
On to B3, for which the binding result in [7] is listed as “no binding (tested: 1.67 µg/mL)”. The binding result in experiment [8] is listed as “no binding (tested: 1.67 µg/mL)”. Also, the binding result in [9] is recorded as “no binding (tested: 1.67 µg/mL)”. Besides, in experiment [5], the Kd stood at 41 nM and the “fold better than Parent (KD)” value is 3.87 fold. In experiment [6], the Kd was 125 nM, the koff stood at 0.00413 s⁻¹, the kon came to 33100 M⁻¹ s⁻¹ and the “relative KD to Parent” value is 0.68 ratio.

B4: He9/L6 (antibody, IgG4, V domains shown)
VH: EVQLLESGGGLVQPGGSLRLSCAASGFSFSDYYLYWVRQAPGKGLEWVATISVGGGQTSYADSVKGRFTISRDNSKNTLYLQMNSLRAEDTAMYYCARAMYYGPAWFAYWGQGTLVTVSS
VL: DIVMTQSPDSLAVSLGERATINCKSSQSLLNSANQKNYLAWYQQKPGQPPKLLIYFASTRESGVPDRFSGSGSGTDFTLTISSLQAEDVAVYYCQSHYPFSFTFGGGTKVEIK
notes: IgG4 S241P, kappa; also called He9 / 6
As for B4, in experiment [5], binding was characterised by a dissociation constant (Kd) of 22 nM and the “fold better than Parent (KD)” value stood at 7.1 fold. Further, in experiment [6], the Kd was 39.6 nM, the koff turned out to be 0.00151 s⁻¹, the on-rate (kon) amounted to 38100 M⁻¹ s⁻¹ and the “relative KD to Parent” value is 4.82 ratio. Besides, the binding result in experiment [10] is “no binding (tested: 1.67 µg/mL)”.

Broadly, the Kd is a measure of binding affinity in units of concentration. As usually defined, the koff is the first-order rate constant of dissociation. For orientation: kon means the rate constant with which the complex forms. A high value points to fast association.

Values taken from patent US20250388666A1 (BRIGHAM AND WOMEN S HOSPITAL, published 2025).
